Square brackets hold non-standard residues; d marks the D form. Ends that are not written are not given here. Cha = N[C@@H](CC1CCCCC1)C(=O)O
Experiments:
[1] = target: MOR-SmBit (Mu-opioid receptor with SmBit attached to the C-terminus) (UniProt P35372); test: in-solution split NANOLUC complementation, separately expressed components, with and without loperamide
[2] = target: MOR-SmBit (Mu-opioid receptor with SmBit attached to the C-terminus) (UniProt P35372); test: in-solution split NANOLUC complementation, co-expressed components, with and without loperamide
[3] = target: Melanocortin-4 Receptor (MC4R) (Homo sapiens, UniProt P32245); test: MC4R IGNiTR assay; conditions: Gs fusion peptide 2 μM; drug 10 μM
[4] = target: β2-adrenergic Receptor (β2AR) (Homo sapiens, UniProt P07550); test: β2AR IGNiTR assay (β2AR-LgBiT cell lysate with SmBiT conformation-specific binder); conditions: SmBiT-Gs peptidomimetic fusion peptides with β2AR-LgBiT
[5] = target: μ-opioid receptor (μ-OR) (Homo sapiens, UniProt P35372); test: μ-OR IGNiTR assay with Gi fusion peptide
[6] = target: T1, MOR (Homo sapiens, UniProt P35372); assay type: biochemical; conditions: peptidomimetic 35 uM and 28 uM
T1 construct: made in house; host or cells: HEK293 adhesion cells (general method)

[7] = target: B2AR-SmBit (beta-2-adrenergic receptor fused to the SmBit fragment of split NANOLUC) (UniProt P07550); test: in-solution split NANOLUC complementation, detergent-extracted B2AR mixed with nanobody lysate, with and without isoproterenol

Chain of MOR-SmBit (Mu-opioid receptor with SmBit attached to the C-terminus) (P35372 1-400, tags or fused parts left off): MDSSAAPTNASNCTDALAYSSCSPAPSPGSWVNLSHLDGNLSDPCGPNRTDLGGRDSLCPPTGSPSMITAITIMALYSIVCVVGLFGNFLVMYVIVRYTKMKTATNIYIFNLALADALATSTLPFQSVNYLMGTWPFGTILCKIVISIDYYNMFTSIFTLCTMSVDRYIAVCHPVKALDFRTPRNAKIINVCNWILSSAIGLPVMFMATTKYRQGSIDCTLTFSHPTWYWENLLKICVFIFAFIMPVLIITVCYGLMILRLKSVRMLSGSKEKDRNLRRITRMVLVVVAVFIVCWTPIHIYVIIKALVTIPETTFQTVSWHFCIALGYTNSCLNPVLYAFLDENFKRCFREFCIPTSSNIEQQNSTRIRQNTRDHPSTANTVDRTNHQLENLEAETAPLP
Chain of μ-opioid receptor (μ-OR) (P35372 whole entry, the tested form may be a part): as the sequence (P35372 1-400, tags or fused parts left off) above
Chain of Melanocortin-4 Receptor (MC4R) (P32245 whole entry, species assumed, the tested form may be a part): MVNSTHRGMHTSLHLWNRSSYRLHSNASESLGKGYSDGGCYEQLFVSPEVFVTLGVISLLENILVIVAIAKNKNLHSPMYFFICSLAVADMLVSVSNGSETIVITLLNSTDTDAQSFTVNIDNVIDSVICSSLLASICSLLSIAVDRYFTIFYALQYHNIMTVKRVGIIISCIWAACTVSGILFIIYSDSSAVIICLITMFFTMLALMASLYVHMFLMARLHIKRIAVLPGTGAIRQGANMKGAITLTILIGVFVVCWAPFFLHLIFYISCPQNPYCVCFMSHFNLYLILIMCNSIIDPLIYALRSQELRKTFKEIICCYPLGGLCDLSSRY
T1 sequence (P35372 whole entry): as the sequence (P35372 1-400, tags or fused parts left off) above

Molecule: Nb39-LgBit (Nb39 attached to LgBit on the C-terminus) (VHH)
- fold signal change between (+Lop) and (-Lop) [1]: 3.2 fold
- fold signal change between (+Lop) and (-Lop) [2]: 3.8 fold

Molecule: VTGYRLFEEILGSFNDCRDIIQRMHLRQYE-{Cha}-L (VTGYRLFEEILGSFNDCRDIIQRMHLRQYE[Cha]L) [Gs fusion peptide]
- DDR significance [3]: significant DDRs
- agonist-dependent DDR [4]: significant DDR
- agonist-dependent DDR ([4]; listed as peptide 2): showed agonist-dependent DDR

Molecule: VTGYRLFEEILGSKKKFDAVTDIIIKNNLKDCG[Cha]F [Gi fusion peptide]
- DDR ([5]; 2 μM peptide, 0.5× μ-OR-LgBiT lysate, around 10 minutes): ~4
- DDR significance ([5]; Gi fusion peptide with μ-OR): significant DDR
- binding to the MOR protein [6]: successful binding

Molecule: VTGYRLFEEILGSKKKFN-C-SRD-C-IQRMHLRQYE-{Cha}-L [peptide 1]
- agonist-dependent DDR [4]: did not demonstrate agonist-dependence

B1: Nb80-LgBit (Nanobody 80 fused to LgBit) (VHH, from another filing)
VHH: QVQLQESGGGLVQAGGSLRLSCAASGSIFSINTMGWYRQAPGKQRELVAAIHSGGSTNYANSVKGRFTISRDNAANTVYLQMNSLKPEDTAVYYCNVKDYGAVLYEYDYWGQGTQVTVSS
- fold signal change between (+Iso) and (-Iso) [7]: 1.9 fold
